Results taken from US7943340B2, “Fungal dipeptidyl peptidase IV (DPPIV) enzyme for reagent use” (priority 2003, dated 2011).
Entries after “also recorded” stand apart in the source; their conditions may differ.

B1: pkLAP: commercially available microsomal LAP from porcine kidney (MEROPS>M1 family) (protein, UniProt P15145 2-963, looked up)
Aminopeptidase N: AKGFYISKALGILGILLGVAAVATIIALSVVYAQEKNKNAEHVPQAPTSPTITTTAAITLDQSKPWNRYRLPTTLLPDSYNVTLRPYLTPNADGLYIFKGKSIVRLLCQEPTDVIIIHSKKLNYTTQGHMVVLRGVGDSQVPEIDRTELVELTEYLVVHLKGSLQPGHMYEMESEFQGELADDLAGFYRSEYMEGNVKKVLATTQMQSTDARKSFPCFDEPAMKATFNITLIHPNNLTALSNMPPKGSSTPLAEDPNWSVTEFETTPVMSTYLLAYIVSEFQSVNETAQNGVLIRIWARPNAIAEGHGMYALNVTGPILNFFANHYNTSYPLPKSDQIALPDFNAGAMENWGLVTYRENALLFDPQSSSISNKERVVTVIAHELAHQWFGNLVTLAWWNDLWLNEGFASYVEYLGADHAEPTWNLKDLIVPGDVYRVMAVDALASSHPLTTPAEEVNTPAQISEMFDSISYSKGASVIRMLSNFLTEDLFKEGLASYLHAFAYQNTTYLDLWEHLQKAVDAQTSIRLPDTVRAIMDRWTLQMGFPVITVDTKTGNISQKHFLLDSESNVTRSSAFDYLWIVPISSIKNGVMQDHYWLRDVSQAQNDLFKTASDDWVLLNVNVTGYFQVNYDEDNWRMIQHQLQTNLSVIPVINRAQVIYDSFNLATAHMVPVTLALDNTLFLNGEKEYMPWQAALSSLSYFSLMFDRSEVYGPMKKYLRKQVEPLFQHFETLTKNWTERPENLMDQYSEINAISTACSNGLPQCENLAKTLFDQWMSDPENNPIHPNLRSTIYCNAIAQGGQDQWDFAWGQLQQAQLVNEADKLRSALACSNEVWLLNRYLGYTLNPDLIRKQDATSTINSIASNVIGQPLAWDFVQSNWKKLFQDYGGGSFSFSNLIQGVTRRFSSEFELQQLEQFKKNNMDVGFGSGTRALEQALEKTKANIKWVKENKEVVLNWFIEHS
B2: fuLAP2: A. fumigatus leucine aminopeptidase, 498 amino acid residues (SEQ ID NO: 9) (protein, listed as Aspergillus fumigatus)
chain: MKLLYLTSFASLAVANGPGWDWKPRVHPKVLPQMIHLWDLLQGAQQLEDFAYAYPERNRVFGGRAHEDTVNYLYRELKKTGYYDVYKQPQVHQWTRADQALTVDGQSYDATTMTYSPSVNATAPLAVVNNLGCVEADYPADLTGKIALISRGECTFATKSVLSAKAGAAAALVYNNIEGSMAGTLGGATSELGAYAPIAGISLADGQALIQMIQAGTVTANLWIDSQVENRTTYNVIAQTKGGDPNNVVALGGHTDSVEAGPGINDDGSGIISNLVVAKALTRFSVKNAVRFCFWTAEEFGLLGSNYYVNSLNATEQAKIRLYLNFDMIASPNYALMIYDGDGSAFNLTGPAGSAQIERLFEDYYTSIRKPFVPTEFNGRSDYQAFILNGIPAGGLFTGAEAIKTEEQAQLFGGQAGVALDANYHAKGDNMTNLNREAFLINSRATAFAVATYANSLDSIPPRNMTTVVKRSQLEQAMKRTPHTHTGGTGCYKDRVEQ

What was measured:
[1] = system: all the LAPs tested (ruLAP1, ruLAP2, fuLAP1, fuLAP2, pkLAP); format: biochemical; conditions: Leu-AMC 5 mM; amastatin 500 μM; ortho-phenantroline 1 and 5 mM; others as
Description: Inhibitors and metallic cations were pre-incubated with the enzymes for 15 min at 37° C. Then, Leu-AMC at a 5 mM final concentration was added. After further incubation for 60 min, enzyme activity was measured as described above. The inhibitors and their concentrations tested purified LAPs were: 500 μM amastatin (Bachem), 40 μM benzamidine (Sigma), 500 μM bestatin (Bachem), 5 mM/l mM EDTA (Sigma). 100 μM E-64 (L-trans-epoxysuccinyl-leu-4-guanidinobutylamide) (Bachem), 100 μM leupeptin (Sigma), 5 mM/1 mM ortho-phenanthroline (Sigma), 500 μM p-chloromercuribenzoic acid (Sigma), 100 μM pepstatin A (Sigma), 40 μM PMSF (Sigma), 20 μM TLCK (Roche Diagnostics), and 20 μM TPCK (Roche Diagnostics).

[2] = system: T. rubrum secreted proteolytic activity; test: Inhibition of T. rubrum secreted proteolytic activity (resorufin-labeled casein); format: biochemical, Trichophyton rubrum; conditions: resorufin-labeled casein as substrate
Description: The proteolytic activity was measured using resorufin-labeled casein in phosphate buffer (20 mM; pH 7.4). The reaction mixture contained 0.02% substrate in a total volume of 0.5 ml. After incubation at 37° C., the undigested substrate was precipitated by trichloroacetic add (4% final concentration) and separated from the supernatant by centrifugation. The absorbance at 574 nm of the supernatant was measured after alkalinization by adding 500 μl Tris buffer (500 mM; pH 9.4). For practical purposes, one unit (U) of proteolytic activity was defined as that producing an absorbance of 0.001 per min.
T. rubrum was grown at 30° C. in a medium containing 0.2% soy protein as a sole carbon and nitrogen source. After 14 days of growth, a concomitant clarification of the culture medium was noted and a substantial proteolytic activity (400 U ml^−1) detected using resorufin-labeled casein as substrate. This proteolytic activity was 15% and 85% inhibited by PMSF and ortho-phenanthroline. respectively, attesting that serine and metalloproteases were secreted by T. rubrum. […] In addition, a high activity on substrates such as Leu-AMC and Leu-pNA was detected in the T. rubrum culture supernatant.

[3] = Aminopeptidase activity assay with fluorogenic aminoacyl-AMC substrates; format: biochemical; conditions: for preference for aminoacyl-AMC substrates compared to Leu-AMC: Leu-AMC used as a reference; for hydrolytic activity toward Ala-AMC in comparison (%) to Leu-MCA: substrate Ala-AMC; for hydrolytic activity toward Ala-AMC in comparison (%) to Leu-MCA / hydrolytic activity toward Arg-AMC in comparison (%) to Leu-MCA / hydrolytic activity toward Asn-AMC in comparison (%) to Leu-MCA / hydrolytic activity toward Asp-AMC in comparison (%) to Leu-MCA / hydrolytic activity toward Cys-AMC in comparison (%) to Leu-MCA / hydrolytic activity toward Gln-AMC in comparison (%) to Leu-MCA / hydrolytic activity toward Glu-AMC in comparison (%) to Leu-MCA / hydrolytic activity toward Gly-AMC in comparison (%) to Leu-MCA / hydrolytic activity toward Gly-Pro-AMC in comparison (%) to Leu-MCA / hydrolytic activity toward His-AMC in comparison (%) to Leu-MCA / hydrolytic activity toward Hyp-AMC in comparison (%) to Leu-MCA / hydrolytic activity toward Ile-AMC in comparison (%) to Leu-MCA / hydrolytic activity toward Leu-AMC in comparison (%) to Leu-MCA used as a standard / hydrolytic activity toward Lys-AMC in comparison (%) to Leu-MCA / hydrolytic activity toward Met-AMC in comparison (%) to Leu-MCA / hydrolytic activity toward Phe-AMC in comparison (%) to Leu-MCA / hydrolytic activity toward Pro-AMC in comparison (%) to Leu-MCA / hydrolytic activity toward Pyr-AMC in comparison (%) to Leu-MCA / hydrolytic activity toward Ser-AMC in comparison (%) to Leu-MCA / hydrolytic activity toward Thr-AMC in comparison (%) to Leu-MCA / hydrolytic activity toward Val-AMC in comparison (%) to Leu-MCA: 5 mM, 37° C., 60 min; for hydrolytic activity toward Arg-AMC in comparison (%) to Leu-MCA: substrate Arg-AMC; for hydrolytic activity toward Asn-AMC in comparison (%) to Leu-MCA: substrate Asn-AMC; for hydrolytic activity toward Asp-AMC in comparison (%) to Leu-MCA: substrate Asp-AMC; for hydrolytic activity toward Cys-AMC in comparison (%) to Leu-MCA: substrate Cys-AMC; for hydrolytic activity toward Gln-AMC in comparison (%) to Leu-MCA: substrate Gln-AMC; for hydrolytic activity toward Glu-AMC in comparison (%) to Leu-MCA: substrate Glu-AMC; for hydrolytic activity toward Gly-AMC in comparison (%) to Leu-MCA: substrate Gly-AMC; for hydrolytic activity toward Gly-Pro-AMC in comparison (%) to Leu-MCA: substrate Gly-Pro-AMC; for hydrolytic activity toward His-AMC in comparison (%) to Leu-MCA: substrate His-AMC; for hydrolytic activity toward Hyp-AMC in comparison (%) to Leu-MCA: substrate Hyp-AMC; for hydrolytic activity toward Ile-AMC in comparison (%) to Leu-MCA: substrate Ile-AMC; for hydrolytic activity toward Leu-AMC in comparison (%) to Leu-MCA used as a standard: substrate Leu-AMC (standard); for hydrolytic activity toward Lys-AMC in comparison (%) to Leu-MCA: substrate Lys-AMC; for hydrolytic activity toward Met-AMC in comparison (%) to Leu-MCA: substrate Met-AMC; for hydrolytic activity toward Phe-AMC in comparison (%) to Leu-MCA: substrate Phe-AMC; for hydrolytic activity toward Pro-AMC in comparison (%) to Leu-MCA: substrate Pro-AMC; for hydrolytic activity toward Pyr-AMC in comparison (%) to Leu-MCA: substrate Pyr-AMC; for hydrolytic activity toward Ser-AMC in comparison (%) to Leu-MCA: substrate Ser-AMC; for hydrolytic activity toward Thr-AMC in comparison (%) to Leu-MCA: substrate Thr-AMC; for hydrolytic activity toward Val-AMC in comparison (%) to Leu-MCA: substrate Val-AMC
Description: (§1) Aminopeptidase activity was determined using different fluorogenic aminoacyl-4-methylcoumaryl-7-amide derivatives of peptides and the internally quenched fluorogenic substrate Lys(Abz)-Pro-Pro-pNA for specific determination of aminopeptidase P activity. Stockel et al, Adv Exp. Med. Biol. 421:31-35 (1997). All substrates were from Bachem (Bubendorf, Switzerland). Substrate stock solutions were prepared at 0.1 M according to the recommendations of the manufacturer and stored at −20° C. The reaction mixture contained a concentration of 5 mM substrate and enzyme preparation (between 56 and 2,662 ng per assay depending on the cleavage activity of each enzyme for the substrates) in 25 μl of 50 mM Tris-HCl buffer adjusted at the optimal pH for each LAP (between 7 and 8). After incubation at 37° C. for 60 min, the reaction was terminated by adding 5 μl of glacial acetic acid and the reaction mixture was diluted with 3.5 ml of water. The released 7-amino-4-methylcoumarin (AMC) was measured using a spectrofluorophotometer (Perkin Elmer LS-5 fluorometer, Zurich, Switzerland) at an excitation wavelength of 370 nm and an emission wavelength of 460 nm. A standard curve made with synthetic AMC was used to assess the released AMC. The released diprolyl-p-nitroanilide was measured at an excitation wavelength of 310 nm and an emission wavelength of 410 nm. The LA activities were expressed in mnoles of released AMC or pNA/min/μg protein.
Table 15 details the hydrolytic activity of different LAPs toward various aminoacyl-MCA comparison (%) to Leu-MCA used as a standard.

[4] = Aminopeptidase P activity assay; format: biochemical; conditions: substrate Lys(Abz)-Pro-Pro-pNA, 5 mM, 37° C., 60 min
Description: as §1

gliadin 33 mer = test: Digestion of gliadin 33 mer (RP-HPLC, ESI-MS); format: biochemical, wheat; conditions: 37° C., 1 mM CoCl2, pH7.2

Molecule | hydrolysis of Leu-AMC [3] | preference for aminoacyl-AMC substrates compared to Leu-AMC [3] | hydrolytic activity toward Ala-AMC in comparison (%) to Leu-MCA [3] | hydrolytic activity toward Arg-AMC in comparison (%) to Leu-MCA [3] | hydrolytic activity toward Asn-AMC in comparison (%) to Leu-MCA [3] | hydrolytic activity toward Asp-AMC in comparison (%) to Leu-MCA [3] | hydrolytic activity toward Cys-AMC in comparison (%) to Leu-MCA [3] | hydrolytic activity toward Gln-AMC in comparison (%) to Leu-MCA [3] | hydrolytic activity toward Glu-AMC in comparison (%) to Leu-MCA [3] | hydrolytic activity toward Gly-AMC in comparison (%) to Leu-MCA [3] | hydrolytic activity toward Gly-Pro-AMC in comparison (%) to Leu-MCA [3] | hydrolytic activity toward His-AMC in comparison (%) to Leu-MCA [3] | hydrolytic activity toward Hyp-AMC in comparison (%) to Leu-MCA [3] | hydrolytic activity toward Ile-AMC in comparison (%) to Leu-MCA [3] | hydrolytic activity toward Leu-AMC in comparison (%) to Leu-MCA used as a standard [3] | hydrolytic activity toward Lys-AMC in comparison (%) to Leu-MCA [3] | hydrolytic activity toward Met-AMC in comparison (%) to Leu-MCA [3] | hydrolytic activity toward Phe-AMC in comparison (%) to Leu-MCA [3] | hydrolytic activity toward Pro-AMC in comparison (%) to Leu-MCA [3] | hydrolytic activity toward Pyr-AMC in comparison (%) to Leu-MCA [3] | further results
c1cnc2c(c1)ccc1cccnc12 [ortho-phenanthroline] | – | – | – | – | – | – | – | – | – | – | – | – | – | – | – | – | – | – | – | – | effect of inhibitor on all the LAPs tested [1]: totally inhibited; inhibition of proteolytic activity [2]: 85%
B1 | efficiently hydrolyzed | extremely high efficiency towards Ala-AMC and Arg-AMC; also recorded: common preference for Leu-AMC as a substrate | 584.7% | 174.8% | 33.9% | 0.9% | 35.5% | 50.7% | 4.7% | 74.8% | 16.7% | 17.6% | 1.7% | 6.3% | 100.0% | 70.1% | 46.1% | 184.4% | 7.9% | 0.0% | hydrolytic activity toward Ser-AMC in comparison (%) to Leu-MCA [3]: 24.6%; hydrolytic activity toward Thr-AMC in comparison (%) to Leu-MCA [3]: 4.4%; hydrolytic activity toward Val-AMC in comparison (%) to Leu-MCA [3]: 4.0%; hydrolytic activity toward Lys(Abz) Pro-PropNA in comparison (%) to Leu-MCA [4]: 0.0%; digestion of the 33 mer (gliadin 33 mer): partial deletion of N-terminal Leu and C-terminal Phe
B2 | efficiently hydrolyzed | common preference for Leu-AMC as a substrate | 11.7% | 2.3% | 73.5% | 0.3% | 2.1% | 37.0% | 1.1% | 2.2% | 74.1% | 1.9% | 13.3% | 1.8% | 100.0% | 2.3% | 89.5% | 8.9% | 7.4% | 0.0% | hydrolytic activity toward Ser-AMC in comparison (%) to Leu-MCA [3]: 10.3%; hydrolytic activity toward Thr-AMC in comparison (%) to Leu-MCA [3]: 0.1%; hydrolytic activity toward Val-AMC in comparison (%) to Leu-MCA [3]: 0.8%; hydrolytic activity toward Lys(Abz) Pro-PropNA in comparison (%) to Leu-MCA [4]: 0.0%
